According to a protein production outcome set (Wang et al. 2014):

Test: label from the status in PepcDB records

Sequence	protein production
MSRENNVQSTRAERKTLILALVAGMCSDALLSWLTMSSVPFSLFALIALVLSAQMLYQEYLAHPVAEEVPLVGLACFFVGAFGHSAFIKAQYPQEGSNFFSIVIVLLLIFWIGRKLGYIGKPR	failed
MSRFPRRFIDDSSMEDAGISLCPSIHYRPINPNDLDRLEQIHRDIFPIKYESEFFQSVVNGVDIVSWAAVDRSRPDDHSDELIGFVTAKFVLAKDSEIDDLIHYDSSKGEETLIYILTLGVVETYRNRGIAMSLISEVIKYASGLSVCRGVYLHVIAHNNAAICLYKRLMFRCVRRLHGFYLINRHHFDAFLFVYFINGSRTPCSPLEVAMFVVNYMKSGIKSVASKLANKDEKGLKWLFCKDTDCV	failed
MSRKRSTKPKPAAKIALKKENDQFLEALKLYEGKQYKKSLKLLDAILKKDGSHVDSLALKGLDLYSVGEKDDAASYVANAIRKIEGASASPICCHVLGIYMRNTKEYKESIKWFTAALNNGSTNKQIYRDLATLQSQIGDFKNALVSRKKYWEAFLGYRANWTSLAVAQDVNGERQQAINTLSQFEKLAEGKISDSEKYEHSECLMYKNDIMYKAASDNQDKLQNVLKHLNDIEPCVFDKFGLLERKATIYMKLGQLKDASIVYRTLIKRNPDNFKYYKLLEVSLGIQGDNKLKKALYGKLEQFYPRCEPPKFIPLTFLQDKEELSKKLREYVLPQLERGVPATFSNVKPLYQRRKSKVSPLLEKIVLDYLSGLDPTQDPIPFIWTNYYLSQHFLFLKDFPKAQEYIDAALDHTPTLVEFYILKARILKHLGLMDTAAGILEEGRQLDLQDRFINCKTVKYFLRANNIDKAVEVASLFTKNDDSVNGIKDLHLVEASWFIVEQAEAYYRLYLDRKKKLDDLASLKKEVESDKSEQIANDIKENQWLVRKYKGLALKRFNAIPKFYKQFEDDQLDFHSYCMRKGTPRAYLEMLEWGKALYTKPMYVRAMKEASKLYFQMHDDRLKRKSDSLDENSDEIQNNGQNSSSQKKKAKKEAAAMNKRKETEAKSVAAYPSDQDNDVFGEKLIETSTPMEDFATEFYNNYSMQVREDERDYILDFEFNYRIGKLALCFASLNKFAKRFGTTSGLFGSMAIVLLHATRNDTPFDPILKKVVTKSLEKEYSENFPLNEISNNSFDWLNFYQEKFGKNDINGLLFLYRYRDDVPIGSSNLKEMIISSLSPLEPHSQNEILQYYL	failed
MSRKRTENGSESGPATSHVPVDRFGFLKQEHANSPERFSKSKTTSSTDHDREERKVRKWRKMIGVGGSDWKHYVRRKPNVVRRRIRKGIPDCLRGLVWQLISGSRDLLLMNPGVYEQLVIYETSASELDIIRDISRTFPSHVFFQKRHGPGQRSLYNVLKAYSVYDRDVGYVQGMGFIAGLLLLYMSEEDAFWLLVALLKGAVHAPMEGLYHAGLPLVQQYLFQLESLVKELIPKLGEHFTQEMINPSMYASQWFITVFSYSFPFPLALRIWDVFLSEGVKIVFKVGLALLKYCQDELVSKVTV	failed
MSRMETSRTLSAFPKIISVDDHTVEPPDVWRDRLPKKYQDTGPRIVRAPLKEMTFLGGKFAPVMGGPGDDGPLGDWWVYEDLHRPLTRLDTAVGYSRDEIKLEVITYEQMRPGSYDVPRRLADMDVNHVQSALCFPTFPRFCGQTFTEAKDRELGLLGVRAYNDWMVEEWCGPDAHGRLIPLTLVPLWDARLAAAEVRRNAARGVRAVAFSEIPPHLGLPSVHTDDWDPFLAACDETGTVIAMHIGSSSRMPSTSADAPPAVGSTITFANCCFSMVDWLMSGKFERFPNLRVMYAEGQIGWIPYILERADVVWEENRGWGGVADKVHRPPSELFAGHVFGCFFDDAFGLRNLDAIGIGNVLYETDYPHSDSTWPKSREVGEAQMGHLEAEVVERIVRGNAIELLGLTDDGLWAGPGGAR	failed
MSRPADKPQPFYFAYGSNMNPAQIEARCRKPEVVATARLPDHRLGFFGSSKIWDGGEESAQPEPGADLWGVVYRLSFHDAEILDTWQKVWLDGTGPYFHFPTQVFDAEGRNYPVLLYKRDVLGPRQKPSAPYLDHIIAGAMARALPPPYIDLLRAIPTCQASTPVPRKASFNPEFFAGLACQCGDLEHHHHHH	failed
MSRQANRGTESKKMSSELFTLTYGALVTQLCKDYENDEDVNKQLDRMGYNIGVRLIEDFLARSNVGRCHDFRETADVIAKVAFKMYLGITPSITNWSPAGDEFSLILENNPLVDFVELPDNHSALIYSNLLCGVLRGALEMVQMAVEAKFVQDTLKGDGVTEIRMRFIRRIEDNLPAGEE	not failed
MSRQFIIQLFLALLLCCLTITFSSIAKSAETTSTDDATDLVVAQKIIKNQQQTEKSSSASAVAVQQPQIANDMADGQSIRNLPSLNEPVIDQANLLSSEQRQALSDQIRQLYQTGKAQMAVVIVPTTGQEDIFDYAMRVGEKWQLGSAKRDNGILMAIAVNDRRIQILTGYGLEGVLPDIVVGRIIRDQITPYFKQAQYAQGIQSGVNEIEKIVNMDPEIAQQAAQDLKQRQEQALHEQQARSQMMVYSLIIVVVGIFASYIVGNRLSAATAGVAGIAAGVISGVGLITSLLIGLGIFLLLITSLAQLILQIFASGGGRGGGGGFGGGGGGGYSGGGGSFGGGGASGSW	failed
MSRRDFTRYVRDKAWLAIPGWLFVAALTLLALRKHLSNLRQHQQLLQGNERIRDSEEQARLILDTAPLALLLVNPQTARIRHANSLAREMLGLPPRDPEQAAGSELNLPLKLQPVEQWLSEGEEVLQQEVELELEDKSRLWAIVSLRRLGHDSQPSALIALYDISGRKLLEQQLHESNQQLAEMAVTDPLTRLYNRRHADMVLRDEISRCERYGQTMAIAVFDIDHFKRFNDQYGHQAGDDVLVAVANALRDTTRNTDINARIGGEEFMVIFPYTRLRDAHKVMSRLQMALTHTTFPFVEQRITFSGGVTDWRPGDSPALMMSRADKLLYDAKQAGRNVVLSDQEEA	failed
MSRRSHNPQSCSSVPTALINGPRVETMTDSVLDVTADALEQAGAHPHRLVVRQHGQVVGRRRWAPWSPDVPSLVYSCSKTFTSAAVGIAVNRGAFGYDDTLADLWPQACTANTGPVAKSMTVRNALSMSTGHSPEQLLEPTLMSRRLPDLNTARILLATEPEGRPGIDFAYNNLATWMLSRLVAQHTGEDVDTIITKEVLDPIGAGPHTWVRDADGIPMGFSGLHIDAEDLSLFGQLLLDDGVHEGARLLPEEWIRQHRVRQVNCDSETDPEWGMGYGWQTWMSSHGYRLDGAFGQYVLIVPEVDAVITMTNEASEGPGDKQAILQAVWDHLLPALADGFQPQPEEIVRTVPTVTGEFDSARSVQGIAPDGSYIVVSPHKESRTWAMSWRCPGTFSHPTDETLDIAVGYEEWQTSHCRVGDDAIDIATSGGWQGETFVARLCVISTPHTLTLRMTPEATTTEWDNEPLNPGGLLGLVHPELRR	failed
MSRVFVIGAAGKVGQRLIKKLGDGGHEVIALHRKEEQSVLIKAAGALPLLANLVEMDAAALSSAMAGSDVVVFTAGAGGAGIELTNAIDGEGLKTSVAAAELAGVRRFLLVSAFPEAARGTDTSAGFENYMRVKKHADVCLASSELDWVILRPGTLVDSAGSGQVRAGLAIPYGDIPRDDVAAFLAALVDQPEISRQIIELTEGTTPVELAIKALGTR	failed
MSRVSLRLWDPLVRLFHVSIAGVFVANYFFNEAGDDWHIWLGYYAVAWLAVRVVWGFLGPTSARWSDFWPSPARLRAHVRSLIDRKPVHRLGHSPLGALVMVLMMALIFGMGLTGFLMEEVDALWGADWPLQTHEILANTLCALVVLHMAAAIFESFQVRDNLPLSMLTGKRRPLPEDDYR	failed
MSRYRLREHAWCLRQLNVSNKSFLKRSFLVGLGYTPPIRYFIDIGPLPNWTRKEVNELILGRTRVRSPILKLLIELFVHRICSDPRFQVKSSSVNA	failed
MSSALLRAAYAYDRLRAHPPEVAGQIATAMASAVHPKGEEPVFLELGVGTGRIALPLIARGYRYIALDADAAMLEVFRQKIAGVDRKVQVVQADARAIPLPDESVHGVIVVHLWHLVPDWPKVLAEAIRVLKPGGALLEGWDQAEASPEWTLQERWRAFAAEEGFPVERGLHAKRLKEVEEALRRLGLKPRTREVARWREERTPREALEALSERLYSFTQGLPEPVHARVMERLWAWAEAELGDLDRPFPVEKRFLLRVSRLG	not failed
MSSCCGPASPASSGPRTRRPRTATAQGDRHLFFAVYTIVPTDAYFGDAAVCFPPARPHMPIRRSLTIALFLLFPALGSGCQSTAPSTSSPSATEDAPAPLIVISIDGLRWDYLDRHEAPALSRIAEDGAHVDHLTPVFPTKTFPNHYSAVTGLYPSRHGIIANTMYDPAMDASFSLSDREAVMNPDWWGGEPIWVTAEQQGRTAATYFWPGSEAPVRGTRPTEWFEYDGSVPGTTRVDQALQWLDRPADTRPDLITLYFSRVDTKGHRHGPRSDSVATALREVDGFIQRLLDGLAARGLADAVNVMVTGDHGMSPTSRDRTIVLDDYIDPDDVRLTARNPVAMMEPRPGIPADSVVTALDQAPHLSAYRRGTLPDTLHFEGHRRIPSVIAVADDRWSIRTQAWMDENPDWTGGGTHGYDPRSENMHTLLAARGPGFRRNTTVDQLSLLHLYELMSALLDVEPAPNDGRLEAARPLLLPASARTAE	failed
MSSEEDKITRISIEPEKQTLLDHHTEKHFTAGEIVRDIIIGVSDGLTVPFALAAGLSGANASSSIVLTAGIAEVAAGAISMGLGGYLAAKSEEDHYAREMKREQEEIVAVPETEAAEVAEILAQYGIEPHEYSPVVNALRKNPQAWLDFMMRFELGLEKPDPKRALQSAFTIAIAYVLGGFIPLLPYMLIPHAMDAVVASVVITLFALFIFGYAKGHFTGSKPLRSAFETAFIGAIASAAAFCLAKVVQH	failed
MSSEHIDEVSGISTTGHEWDGIRELNNPLPRWWVITFYITVAWAVAYTIAYPAWPMLSSATKGVLGYSSRNAVKIELAAAEAAKGKYVAAIQQKTVSEIAADDALREFAVAAGGATFKVNCVQCHGSGAQGSKGFPNLNDDDWLWGGTTEQIQQTIAHGIRFASDPDTRQSEMPPFGDIITPEQIAQVGAYVASLSGKVQDASLIEPGAKVFGENCVACHGDNAKGNKELGAPNLTDAIWLYAPGETAIAVQVRAPKHGVMPAWIGRLGETKVKELAVYVHSLGGGE	failed
MSSEVEQNVPCEACGCSAEMGFVIKEGDDVAEVSIFADNKVLLESEFSNYLALAKEVCADVEHSIVITEDEKELHARLKFSCSAEKLIYELKTRSLRRLEHHHHHH	failed
MSSITADNAGQYGDSRKLAARARLHSQYTIAETAWFPWVAAQLSLKPGDRVLDVGCGPAWFWAATTGLLPADLDLTLTDLSPGMVDEAVARCSALPFGSVRGCQADAAALPFEDGAFDAVVAMHMLYHLTDPVAGIADMSRVLKPGGLLAVTTNGAGNMREIYALTTLFGSAPSDPAAEAFGYDAAERSMRSQFGNVTMSQHPASLRITEPEDVFLALTSYPPGDGAGEPQLTRFRQAIADAFSQRSGVLEVSKETALFLSRKTV	failed
MSSKIFCKSWGAEYIAADVVRFRLWATGQQKVMLRLAGKDQEMQANGDGWFTLDVAGVTPGTEYNFVLSDGMVVPDPASRAQKTDVNGPSYVVDPGSYTWRNTGWKGSRWEQAVVYEMHTGTFTPEGTFRAAIAKLPYLAELGVTVIEVMPVAQFGGERGWGYDGVLLYAPHSAYGTPDDFKAFIDAAHGYGLSVVLDIVLNHFGPEGNYLPLLAPAFFHKERMTPWGNGIAYDVDAVRRYIIEAPLYWLTEYHLDGLRFDAIDQIEDSSARHVLVEIAQRIREDITDRPIHLTTEDSRNIISLHPRDQDGNAPLFTAEWNDDFHNAVHVFATGETQAYYNDFADAPEKHLARALAEGFAYQGEISPQTGEPRGVKSTGQPPVAFVDFIQNHDQVGNRAQGDRLITLAGAERTKVLLATLLLSPHIPLLFMGEEYGESRPFLFFTDFHGDLARAVREGRAKEFADHAGENVPDPNAPETFQRSKLNWKQQHSEEGKAWLAFTRELLLLRQKHIVPLLSAARESSGTVLQTAPGFIAVSWRFPGGTLSLALNISATTVLLPDLPGKTLFAWPNESTGSLSQHSLIVRLAQGESAS	not failed
